What was measured:
L-selectin (LS-Rg) [1] = target: T1, L-selectin (LS-Rg) (Homo sapiens, UniProt P14151 P14151:39-332); assay: filter; room temperature; Table 13 prints 110 nM (probably pM), 380 pM at 37 C; details: tags: human IgG2 Fc fusion; chain copies: 2 (stated dimer)
T1 sequence: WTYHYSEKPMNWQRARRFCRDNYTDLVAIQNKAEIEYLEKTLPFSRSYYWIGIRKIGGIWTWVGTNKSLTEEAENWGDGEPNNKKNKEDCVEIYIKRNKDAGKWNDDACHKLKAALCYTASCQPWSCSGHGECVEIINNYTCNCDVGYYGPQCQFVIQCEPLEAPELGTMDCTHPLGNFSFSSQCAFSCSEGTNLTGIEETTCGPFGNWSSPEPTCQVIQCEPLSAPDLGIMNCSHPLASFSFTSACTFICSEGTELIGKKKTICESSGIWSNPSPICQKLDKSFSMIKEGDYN
Description: As described in SELEX Patent Applications and in Example 7, paragraph C, a nitrocellulose filter partitioning method was used to determine the affinity of ssDNA ligands for LS-Rg and for other proteins. For these experiments a Gibco BRL 96 well manifold was substituted for the 12 well Millipore manifold used in Example 7 and radioactivity was determined with a Fujix BAS100 phosphorimager. Bindin, data were analyzed as described in Example 7, paragraph C.

L-selectin (LS-Rg) [2] = target: T1, L-selectin (LS-Rg); assay: filter; affinity similar to full length LD227; details: tags: human IgG2 Fc fusion; chain copies: 2 (stated dimer)
L-selectin (LS-Rg) [3] = target: T1, L-selectin (LS-Rg); assay: filter; affinity reduction versus full length LF1514; details: tags: human IgG2 Fc fusion; chain copies: 2 (stated dimer)
Description: (§1) As described in SELEX Patent Applications, a nitrocellulose filter partitioning method was used to determine the affinity of RNA ligands for LS-Rg and for other proteins. Filter discs (nitrocellulose/cellulose acetate mixed matrix, 0.45 μm pore size, Millipore) were placed on a vacuum manifold and washed with 3 ml of SHMCK 140 buffer under vacuum. Reaction mixtures, containing ³²P labeled RNA pools and unlabeled LS-Rg, were incubated in SHMCK 140 for 10-20 min at 37° C., and then immediately washed with 3 ml SHMCK 140. The filters were air-dried and counted in a Beckman LS6500 liquid scintillation counter without fluor. Alternatively, binding studies employed 96 well micro-titer manifolds essentially as described in Example 13, paragraph E.
(§2) Predictions of minimal high affinity sequences for family 1 ligands can be made and serve as a partial test of the postulated secondary structure.

L-selectin (LS-Rg) [4] = target: T1, L-selectin (LS-Rg); assay: filter; truncate at base of lower stem; details: tags: human IgG2 Fc fusion; chain copies: dimer; hairpin
E-selectin (ES-Rg) [5] = target: T2, E-selectin (ES-Rg) (Homo sapiens, UniProt P16581 P16581:22-556); assay: filter; specificity control; details: tags: human IgG1 Fc fusion; chain copies: dimer (inferred); label: 32P
T2 sequence: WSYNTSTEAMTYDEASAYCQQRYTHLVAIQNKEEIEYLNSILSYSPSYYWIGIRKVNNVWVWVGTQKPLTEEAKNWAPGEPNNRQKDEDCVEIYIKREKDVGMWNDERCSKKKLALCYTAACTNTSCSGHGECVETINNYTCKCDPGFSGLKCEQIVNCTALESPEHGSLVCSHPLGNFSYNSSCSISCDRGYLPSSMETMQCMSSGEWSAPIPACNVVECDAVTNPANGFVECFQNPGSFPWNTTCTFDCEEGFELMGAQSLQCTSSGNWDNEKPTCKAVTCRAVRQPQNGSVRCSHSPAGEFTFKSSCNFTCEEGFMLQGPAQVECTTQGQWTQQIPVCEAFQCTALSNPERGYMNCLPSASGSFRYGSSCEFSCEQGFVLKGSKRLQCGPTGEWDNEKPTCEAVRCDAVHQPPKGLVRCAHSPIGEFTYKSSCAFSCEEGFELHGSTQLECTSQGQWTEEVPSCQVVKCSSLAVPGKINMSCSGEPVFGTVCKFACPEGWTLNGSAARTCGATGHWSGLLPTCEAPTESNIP
Description: The affinity of P-selectin ligands to ES-Rg, LS-Rg and CD22β-Rg were determined by nitrocellulose partitioning. […] In general, a ligand's affinity for ES-Rg and LS-Rg is at least 10⁴-fold lower than for PS-Rg. […] The specificity of oligonucleotide ligand binding contrasts sharply with the binding of cognate carbohydrates by the selectins and confirms the proposition that SELEX ligands will have greater specificity than carbohydrate ligands.

P-selectin (PS-Rg) [6] = target: T3, P-selectin (PS-Rg) (Homo sapiens, UniProt P16109 P16109:42-321); assay: filter; 37 C, HSMC; details: tags: human IgG1 Fc fusion; chain copies: dimer; label: 32P
L-selectin (LS-Rg) [7] = target: T1, L-selectin (LS-Rg); assay: filter; upper stem and loop only; details: tags: human IgG2 Fc fusion; chain copies: dimer; hairpin
Description: as §1, §2

[8] = target: P-selectin on activated platelets (Homo sapiens, UniProt P16109 P16109:42-830); assay: flow; biotinylated, SA-PE; divalent cation dependent; blocked by G1 antibody; details: hairpin
Description: To detect oligonucleotide ligand binding, 15 μl BB+ containing ligand conjugated to either FITC or biotin was incubated 20-30 minutes at 4° C. with 10 μl platelet suspension. The FITC-figand incubations were diluted to 200 μl with BB+ and analyzed on a FACSCaliber flow cytometer. The biotinylated-ligand reactions were incubated with streptavidin-phycoehrin (SA-PE) (Becton Dickinson) for 20 minutes at 4° C., before dilution and analysis. Wash steps with 500 μl BB+ and 700 ×g spins have been used without compromising the quality of the results.
Since the P-selectin ligands were isolated against purified protein, their ability to bind P-selectin presented in the context of a cell surface was determined in flow cytometry experiments with activated human platelets. Platelets were gated by side scatter and CD61 expression. […] The expression of P-selectin was monitored with anti-CD62P monoclonal antibody (Becton Dickinson).

P-selectin (PS-Rg) [9] = target: T3, P-selectin (PS-Rg); assay: filter; HSMC; SLeX IC50 2 nM; details: tags: human IgG1 Fc fusion; chain copies: dimer; hairpin
L-selectin (LS-Rg) [10] = target: T1, L-selectin (LS-Rg); assay: filter; affinity similar to full length LD201; details: tags: human IgG2 Fc fusion; chain copies: 2 (stated dimer)
L-selectin (LS-Rg) [11] = target: T1, L-selectin (LS-Rg); assay: filter; 37 C; lacks 7-nt bulge; details: tags: human IgG2 Fc fusion; chain copies: dimer; label: 32P; hairpin lacking bulge
Description: as §1
These calculations assume two ligand binding sites per chimera.

soluble L-selectin = target: T4, soluble L-selectin (Homo sapiens, UniProt P14151 P14151:39-332); assay: filter; binding undetectable; Table 16 sequence differs from SEQ 358; details: tags: R&D Systems
T4 sequence: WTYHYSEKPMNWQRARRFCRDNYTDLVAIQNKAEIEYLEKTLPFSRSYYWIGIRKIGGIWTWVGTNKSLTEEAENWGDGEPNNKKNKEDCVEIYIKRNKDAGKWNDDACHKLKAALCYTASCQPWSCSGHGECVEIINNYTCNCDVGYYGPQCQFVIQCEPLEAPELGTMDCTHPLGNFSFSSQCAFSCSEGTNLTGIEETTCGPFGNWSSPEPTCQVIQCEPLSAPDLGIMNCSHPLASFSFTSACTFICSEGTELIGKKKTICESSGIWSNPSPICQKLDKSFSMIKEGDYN

L-selectin (LS-Rg) [12] = target: T1, L-selectin (LS-Rg); assay: inhibition; sialyl-LewisX competition ELISA; details: tags: human IgG2 Fc fusion; chain copies: 2 (stated dimer)
Description: SLe^X-BSA (Oxford GlycoSystems, Oxford, UK) in 1X PBS, without CaCl₂, and MgCl₂, (GIBCO/BRL) was immobilized at 100 ng/well onto a microtiter plate by overnight incubation at […]. The wells were blocked for 1 h with the assay buffer consisting of 20 mM HEPES, 111 mM NaCl, 1 mM CaCl₂, 1 mM MgCl₂, 5 mM KCl, 8.9 mM NaOH, final pH 8, and 1% globulin-free BSA (Sigma). The reaction mixtures, incubated for 90 min with orbital shaking, contained 5 nM L-Selectin-Rg, a 1:100 dilution of anti-human IgG-peroxidase conjugate (Sigma), and 0 - 50 ruM of competitor in assay buffer. After incubation, the plate was washed with BSA-free assay buffer to remove unbound chimera-antibody complex and incubated for 25 min with O-phenylenediamine dihydrochloride peroxidase substrate (Sigma) by shaking in the dark at 22°0 C. Absorbance was read at 450 nm on a Bio-Kinetics Reader, Model EL312e (Bio-Tek Instruments, Laguna Hills, Calif.). Values shown represent the mean ±s.e from duplicate, or triplicate, samples from one representative experiment.
Sialyl Lewis^X is the minimal carbohydrate ligand bound by selecting.

[13] = target: T5, L-selectin on PBMC / lymphocytes (Homo sapiens, UniProt P14151 P14151:39-372); assay: flow; half-saturation on human lymphocytes; divalent cation dependent; details: label: 32P or 5'-fluorescein (cells); hairpin
T5 sequence: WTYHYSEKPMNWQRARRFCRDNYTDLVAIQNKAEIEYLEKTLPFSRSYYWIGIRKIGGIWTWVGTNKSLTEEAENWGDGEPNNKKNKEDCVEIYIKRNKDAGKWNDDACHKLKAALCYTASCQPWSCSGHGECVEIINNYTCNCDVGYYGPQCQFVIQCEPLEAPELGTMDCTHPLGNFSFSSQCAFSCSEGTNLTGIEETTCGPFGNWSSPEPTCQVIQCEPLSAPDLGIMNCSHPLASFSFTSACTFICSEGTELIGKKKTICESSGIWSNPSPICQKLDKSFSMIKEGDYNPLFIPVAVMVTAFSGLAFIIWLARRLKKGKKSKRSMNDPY
Description: (§3) A variety of monomeric nucleic acid ligands and multivalent Complexes have been examined in flow cytometry.

[14] = target: T5, L-selectin on PBMC / lymphocytes; assay: flow; half-saturation; details: label: labeled streptavidin
Description: as §3

P-selectin (PS-Rg) [15] = target: T3, P-selectin (PS-Rg); assay: filter; 37 C; 0.01 nM at 4 C; details: tags: human IgG1 Fc fusion; chain copies: dimer; label: 32P
E-selectin (ES-Rg) [16] = target: T2, E-selectin (ES-Rg); assay: filter; specificity control; details: tags: human IgG1 Fc fusion; chain copies: dimer (inferred); label: 32P; remark: listed apart in the source
CD22beta (CD22b-Rg) = CD22beta (CD22b-Rg) (UniProt P20273 P20273:20-687); assay: filter; no binding above background; details: tags: human IgG1 Fc fusion; chain copies: 2 (inferred)
P-selectin (PS-Rg) [17] = target: T3, P-selectin (PS-Rg); assay: inhibition; sialyl-LewisX; details: tags: human IgG Fc fusion; chain copies: 2 (stated dimer)
Description: The ability of evolved RNA pools or cloned ligands to inhibit the binding of PS-Rg to sialyl-Lewis^x was tested in competitive ELISA assays (C. Foxall et al., 1992, supra). For these assays, the wells of Corning (25801) 96 well microtiter plates were coated with 100 ng of a sialyl-Lewis^x/BSA conjugate, air dried overnight, washed with 300 μl of PBS(−) and then blocked with 1% BSA in HSMC for 60 min at room temperature. RNA ligands were incubated with PS-Rg in HSMC/1% BSA at room temperature for 15 min. After removal of the blocking solution, 50 μl of PS-Rg (10 nM) or a PS-Rg (10 nM)/RNA ligand mix was added to the coated, blocked wells and incubated at room temperature for 60 minutes. The binding solution was removed, wells were washed with 300 μl of PBS(−) and then probed with HRP conjugated anti-human IgG, at room temperature to quantitate PS-Rg binding. After a 30 minute incubation at room temperature in the dark with OPD peroxidase substrate (Sigma P9187), the extent of PS-Rg binding and percent inhibition was determined from the OD₄₅₀.

T3 sequence (P16109 42-321, one chain of several): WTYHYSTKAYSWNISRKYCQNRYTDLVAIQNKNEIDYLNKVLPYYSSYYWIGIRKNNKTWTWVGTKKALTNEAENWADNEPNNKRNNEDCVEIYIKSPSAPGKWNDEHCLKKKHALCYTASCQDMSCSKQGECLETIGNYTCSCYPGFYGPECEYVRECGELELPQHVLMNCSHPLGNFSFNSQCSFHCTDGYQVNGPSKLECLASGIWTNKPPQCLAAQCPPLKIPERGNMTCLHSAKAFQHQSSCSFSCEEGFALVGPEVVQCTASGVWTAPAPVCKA
Sequence of P-selectin on activated platelets (P16109 42-830, one chain of several): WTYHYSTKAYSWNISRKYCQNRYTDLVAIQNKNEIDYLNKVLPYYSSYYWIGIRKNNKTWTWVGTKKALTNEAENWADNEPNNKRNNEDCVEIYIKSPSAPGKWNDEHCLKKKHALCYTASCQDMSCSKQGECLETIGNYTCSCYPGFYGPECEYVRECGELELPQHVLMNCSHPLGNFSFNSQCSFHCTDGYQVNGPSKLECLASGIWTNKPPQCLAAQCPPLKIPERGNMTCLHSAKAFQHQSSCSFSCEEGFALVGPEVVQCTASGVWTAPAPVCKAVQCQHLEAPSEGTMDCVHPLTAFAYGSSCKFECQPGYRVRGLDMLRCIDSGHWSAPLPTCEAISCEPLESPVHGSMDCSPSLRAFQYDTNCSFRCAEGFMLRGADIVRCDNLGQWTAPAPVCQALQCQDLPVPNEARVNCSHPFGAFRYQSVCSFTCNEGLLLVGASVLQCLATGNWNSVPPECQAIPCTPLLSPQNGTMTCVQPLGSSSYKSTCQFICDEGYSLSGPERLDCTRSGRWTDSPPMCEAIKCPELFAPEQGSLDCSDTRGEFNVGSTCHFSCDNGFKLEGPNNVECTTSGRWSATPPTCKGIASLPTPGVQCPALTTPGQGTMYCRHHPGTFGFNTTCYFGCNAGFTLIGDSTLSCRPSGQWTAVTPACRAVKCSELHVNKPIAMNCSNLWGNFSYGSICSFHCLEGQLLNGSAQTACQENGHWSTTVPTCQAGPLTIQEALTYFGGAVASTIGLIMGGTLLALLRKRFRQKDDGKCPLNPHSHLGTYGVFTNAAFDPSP

B1: LD233 (ssDNA)
DNA: CTACCTACGATCTGACTAGCCACGACAGAGAACAAGGCGTTAGACGTTATCCGACCACGGCTTACTCTCATGTAGTTCC
L-selectin (LS-Rg) [1]
  Kd: 0.12 nM

## CGCGCGTTACAAGGTGCTAAACGTAACGTACTTGCTTACTCGCG (ssDNA) [LD227X1]
L-selectin (LS-Rg) [2]
  binding signal: ~1 fold

## CUCAAAUUGCGUGUUUUCAAGCA (ssRNA, 2'-F C and U) [LF1514T2]
L-selectin (LS-Rg) [3]
  binding signal: ≥ 100 fold

## GGUACCUCAAAUUGCGUGUUUUCAAGCAGUAUC (ssRNA, 2'-F on all C and U) [LF1514T4]
L-selectin (LS-Rg) [4]
  binding signal: < 2 fold weaker than LF1514

B2: PF377 (ssRNA)
RNA: GGGAGACAAGAAUAAACGCUCAACGAGCCAGGAACAUCGACGUCAGCAAACGCGAGCGCAACCAGUAACACCUUCGACAGGAGGCUCACAACAGGC
modifications: 2'-F on all C and U
E-selectin (ES-Rg) [5]
  Kd: 2300 nM
P-selectin (PS-Rg) [6]
  Kd: 0.0185 nM

## UGCGUGUUUUCAAGCA (ssRNA, 2'-F on all C and U) [LF1514T1]
L-selectin (LS-Rg) [7]
  binding signal: ≥ 100 fold weaker than LF1514

## CUCAACGAGCCAGGAACAUCGACGUCAGCAAACGCGAG (ssRNA, 2'-F on all C and U) [PF377s1]
[8]
  EC50: ~0.05 nM
P-selectin (PS-Rg) [9]
  Kd: 0.06 nM

## CGCGGTAACCAGTACAAGGTGCTAAACGTAATGGCGCG (ssDNA) [LD201T10]
L-selectin (LS-Rg) [10]
  binding signal: ~1 fold

B3: LF1512 (ssRNA)
RNA: GGGAGGACGAUGCGGCACACGUGUUUUCAAGUGUGCUCCUGGGAUCAGACGACUCGCCCGA
modifications: 2'-F on all C and U
L-selectin (LS-Rg) [11]
  Kd: 315 nM

B4: LF1535 (ssRNA)
RNA: GGGAGGACGAUGCGGCAAUGUGUUUCUCAAAUUGCUUUCUCCCUUCAGACGACUCGCCCGA
modifications: 2'-F C and U
Soluble L-selectin
  binding result: no binding

## TAGCCAAGGTAACCAGTACAAGGTGCTAAACGTAATGGCTTCGGCTTAC (ssDNA) [LD201T1]
L-selectin (LS-Rg) [12]
  IC50: ~3 nM
[13]
  Kd: 3 nM

## TAGCCAAGGTAACCAGTACAAGGTGCTAAACGTAATGGCTTCGGCTTAC (ssDNA, biotin, multivalent on streptavidin) [bio-LD201T1/streptavidin]
[14]
  EC50: ~0.15 nM

B5: PA350 (ssRNA)
RNA: GGGAGACAAGAAUAAACGCUCAAGCCCCAAACGCAAGUGAGCAUCCGCAACAGGGAAGAAGACAGACGAUUGAUUCGACAGGAGGCUCACAACAGGC
modifications: 2'-NH2 on all C and U
P-selectin (PS-Rg) [15]
  Kd: 0.06 nM
E-selectin (ES-Rg) [16]
  Kd: 375 nM

B6: PA350 (ssRNA)
RNA: GGGAGACAAGAAUAAACGCUCAAGCCCCAAACGCAAGUGAGCAUCCGCAACAGGGAAGAAGACAGACGAUUGAUUCGACAGGAGGCUCACAACAGGC
modifications: 2'-NH2 C and U
CD22beta (CD22b-Rg)
  binding result: no binding
P-selectin (PS-Rg) [17]
  IC50: 2 nM
